Here are results for 8 molecules from US8357523B2, “Beta-glucosidase variant enzymes and related polynucleotides” (Codexis, Inc., priority 2009, dated 2013).

B1: 112 (protein)
chain: STAIAQEGAAPAAILHPEKWPRPATQRLIDPAVEKRVDALLKQLSVEEKVGQVIQGDIGTITPEDLRKYPLGSILAGGDSGPNGDDRAPPKEWLDLADAFYRVSLEKRPGHTPIPVLFGIDAVHGHGKIGSATIFPHNIALGMTRDPELLRRIGEVTAEEMAATGIDWTFAPCLSVVRDDRWGRTYEGFSEDPEIVAAYSAAIVEGVQGKFGSKDFMAPGRIVASAKHFLADGGTDQGRDQGDARISEDELIRIHNAGYPPAIDAGVLTVMASFSSWQGIKHHGHKQLLTDVLKGQMGFNGFIVGDWNAHDQVPGCTKFNCPTSLIAGLDMYMAADSWKQLYENTLAQVKDGTIPMARLDDAVRRILRVKVLAGLFEKPAPKDRPGLPGLETLGSPEHRAVGREAVRKSLVLLKNDKGTLPLSPKARVLVAGDGADNIGKQSGGWTISWQGTGNRNDEFPGATSILGGIRDAVADAGGSVEFDVAGQYKTKPDVAIVVFGEEPYAEFQGDVETLEYQPDQKQDLALLKKLKDQGIPVVAVFLSGRPMWVNPELNASDAFVAAWLPGTEGGGVADVLFTDKAGKVQHDFAGKLSYSWPRTAAQTTVNRGDADYNPLFAYGYGLTYKDKSKVGTLPEESGVPAEARQNAGIYFRAGALRLPGRFL
B2: 116 (protein)
chain: STAIAQEGAAPAAILHPEKWPRPATQRLIDPAVEKRVDALLKQLSVEEKVGQVIQGDIGTITPEDLRKYPLGSILAGGDSGPNGDDRAPPKEWLDLADAFYRVSLEKRPGHTPIPVLFGIDAVHGHGKIGSATIFPHNIALGATRDPELLRRIGEVTAVEMTATGIDWTFAPALSVVRDDRWGRTYEGFSEDPEIVAAYSAAIVEGVQGKYGSKDFMAPGRIVACAKHFLADGGTDQGRDQGDARISEDELIRIHNAGYPPAIDAGVLTVMASFSSWQGIKHHGHKQLLTDVLKGQMGFNGFIVGDWNAHDQVPGCTKFNCPTSLIAGLDMYMAADSWKQLYENTLAQVKDGTIPMARLDDAVRRILRVKVLAGLFEKPAPKDRPGLPGLETLGSPEHRAVGREAVRKSLVLLKNDKGTLPLSPKARVLVAGDGADNIGKQSGGWTISWQGTGNRNDEFPGATSILGGIRDAVADAGGSVEFDVAGQYKTKPDVAIVVFGEEPYAEFQGDVETLEYQPDQKQDLALLKKLKDQGIPVVAVFLSGRPMWVNPELNASDAFVAAWLPGTEGGGVADVLFTDKAGKVQHDFAGKLSYSWPRTAAQTTVNRGDADYNPLFAYGYGLTYQDKSKVGTLPEESGVPAEARQNAGIYFRAGALRLPGRFL
B3: 115 (protein)
chain: STAIAQEGAAPAAILHPEKWPRPATQRLIDPAVEKRVDALLKQLSVEEKVGQVIQGDIGTITPEDLRKYPLGSILAGGDSGPNGDDRAPPKEWLDLADAFYRVSLEKRPGHTPIPVLFGIDAVHGHGKIGSATIFPHNIALGATRDPELLRRIGEVTAVEMATTGIDWTFAPCLSVVRDDRWGRTYEGFSEDPEIVAAYSPAIVEGVQGKYGSKDFMAPGRIVACAKHFLADGGTDQGRDQGDARISEDELIRIHNAGYPPAIDAGVLTVMASFSSWQGIKHHGHKQLLTDVLKGQMGFNGFIVGDWNAHDQVPGCTKFNCPTSLIAGLDMYMAADSWKQLYENTLAQVKDGTIPMARLDDAVRRILRVKVLAGLFEKPAPKDRPGLPGLETLGSPEHRAVGREAVRKSLVLLKNDKGTLPLSPKARVLVAGDGADNIGKQSGGWTISWQGTGNRNDEFPGATSILGGIRDAVADAGGSVEFDVAGRYKTKPDVAIVVFGEEPYAEFQGDVETLEYQPDQKQDLALLKKLKDQGIPVVAVFLSGRPMWVNPELNASDAFVAPWLPGTEGGGVADVLFTDKAGKVQHDFAGKLSYSWPRTAAQTTVNRGDADYNPLFAYGYGLTYKDKSKVGTLPEESGVPAEARQNAGIYFRAGALRLPGRFL
B4: 114 (protein)
chain: STAIAQEGAAPAAILHPEKWPRPATQRLIDPAVEKRVDALLKQLSVEEKVGQVIQGDIGTITPEDLRKYPLGSILAGGDSGPNGDDRAPPKEWLDLTDAFYRVSLEKRPGHTPIPVLFGIDAVHGHGKIGSATIFPHNIALGMTRDPELLRRIGEVTAEEMAATGIDWTFAPCLSVVRDDRWGRTYEGFSEDPEIVAAYSAAIVEGVQGKYGSKDFMAPGRIVASAKHFLADGGTDQGRDQGDARISEDELIRIHNAGYPPAIDAGVLTVMASFSSWQGIKHHGHKQLLTDVLKGQMGFNGFIVGDWNAHDQVPGCTKFNCPTSLIAGLDMYMAADSWKQLYENTLAQVKDGTIPMARLDDAVRRILRVKVLAGLFEKPAPKDRPGLPGLETLGSPEHRAVGREAVRKSLVLLKNDKGTLPLSPKARVLVAGDGADNIGKQSGGWTISWQGTGNRNDEFPGATSILGGIRDAVADAGGSVEFDVAGQYKTKPDVAIVVFGEEPYAEFRGDVETLEYQPDQKQDLALLKKLKDQGIPVVAVFLSGRPMWVNPELNASDAFVAAWLPGTEGGGVADVLFTDKAGKVQHDFAGKLSYSWPRTAAQTTVNRGDADYNPLFAYGYGLTYKDKSKVGTLPEESGVPAEARQNAGIYFRAGALRLPGRFL
B5: 113 (protein)
chain: STAIAQEGAAPAAILHPEKWPRPATQRLIDPAVEKRVDALLKQLSVEEKVGQVIQGDIGTITPEDLRKYPLGSILAGGNSGPNGDDRAPPKEWLDLADAFYRVSLEKRPGHTPIPVLFGIDAVHGHGKIGSATIFPHNIALGMTRDPELLRRIGEVTAQEMAATGIDWTFAPALSVVRDDRWGRTYEGFSEDPEIVAAYSPAIVEGVQGKYGSKDFMAPGRIVACAKHFLADGGTDQGRDQGDARISEDELIRIHNAGYPPAIDAGVLTVMASFSSWQGIKHHGHKQLLTDVLKGQMGFNGFIVGDWNAHDQVPGCTKFNCPTSLIAGLDMYMAADSWKQLYENTLAQVKDGTIPMARLDDAVRRILRVKVLAGLFEKPAPKDRPGLPGLETLGSPEHRAVGREAVRKSLVLLKNDKGTLPLSPKARVLVAGDGADNIGKQSGGWTISWQGTGNRNDEFPGATSILGGIRDAVADAGGSVEFDVAGQYKTKPDVAIVVFGEEPYAEFQGDVETLEYQPDQKQDLALLKKLKDQGIPVVAVFLSGRPMWVNPELNASDAFVAAWLPGTEGGGVADVLFTDKAGKVQHDFAGKLSYSWPRTAAQTTVNRGDADYNPLFAYGYGLTYKDKSKVGTLPEESGVPAEARQNAGIYFRAGALRLPGRFL
B6: 120 (protein)
chain: STAIAQEGAAPAAILHPEKWPRPATQRLIDPAVEKRVDALLKQLSVEEKVGQVIQGDIGTITPEDLRKYPLGSILAGGDSGPNGDDRAPPKEWLDLADAFYRVSLEKRPGHTPIPVLFGIDAVHGHGNIGSATIFPHNIALGATRDPELLRRIGEVTAVEMTATGIDWTFAPALSVVRDDRWGRTYEGFSEDPEIVASYSAAIVEGVQGKFGSKDFMAPGRIVASAKHFLADGGTDQGRDQGDARISEDELIRIHNAGYPPAIDAGVLTVMASFSSWQGIKHHGHKQLLTDVLKGQMGFNGFIVGDWNAHDQVPGCTKFNCPTSLIAGLDMYMAADSWKQLYENTLAQVKDGTIPMARLDDAVRRILRVKVLAGLFEKPAPKDRPGLPGLETLGSPEHRAVGREAVRKSLVLLKNDKGTLPLSPKARVLVAGDGADNIGKQSGGWTISWQGTGNRNDEFPGATSILGGIRDAVADAGGSVEFDVAGQYKTKPDVAIVVFGEEPYAEFQGDVETLEYQPDQKQDLALLKKLKDQGIPVVAVFLSGRPMWVNPELNASDAFVAAWLPGTEGGGVADVLFTDKAGKVQHDFAGKLSYSWPRTAAQTTVNRGDADYNPLFAYGYGLTYKDKSKVGTLPEESGVPAEARQNAGIYFRAGALRLPGRFP
B7: 119 (protein)
chain: STAIAQEGAAPAAILHPEKWPRPATQRLIDPAVEKRVDALLKQLSVEEKVGQVIQGDIGTITPEDLRKYPLGSILAGGNSGPNGDDRAPPKEWLDLADAFYRVSLEKRPGHTPIPVLFGIDAVHGHGNIGSATIFPHNIALGATRDPELLRRIGEVTAQEMAATGIDWTFAPALSVVRDDRWGRTYEGFSEDPEIVAAYSPAIVEGVQGKYGSKDFMAPGRIVACAKHFLADGGTDQGRDQGDARISEDELIRIHNAGYPPAIDAGVLTVMASFSSWQGIKHHGHKQLLTDVLKGQMGFNGFIVGDWNAHDQVPGCTKFNCPTSLIAGLDMYMAADSWKQLYENTLAQVKDGTIPMARLDDAVRRILRVKVLAGLFEKPAPKDRPGLPGLETLGSPEHRAVGREAVRKSLVLLKNDKGTLPLSPKARVLVAGDGADNIGKQSGGWTISWQGTGNRNDEFPGATSILGGIRDAVADAGGSVEFDVAGQYKTKPDVAIVVFGEEPYAEFQGDVETLEYQPDQKQDLALLKKLKDQGIPVVAVFLSGRPMWVNPELNASDAFVAAWLPGTEGGGVADVLFTDKAGKVQHDFAGKLSYSWPRTAAQTTVNRGDADYNPLFAYGYGLTYKDKSKVGTLPEESGVPAEARQNAGIYFRAGALRLPGRFL
B8: 118 (protein)
chain: STAIAQEGAAPAAILHPEKWPRPATQRLIDPAVEKRVDALLKQLSVEEKVGQVIQGDIGTITPEDLRKYPLGSILAGGDSGPNGDDRAPPKEWLDLADAFYRVSLEKRPGHTPIPVLFGIDAVHGHGKIGSATIFPHNIALGMTRDPELLRRIGEVTAVEMTATGIDWTFAPALSVVRDDRWGRTYEGFSEDPEIVASYSAAIVEGVQGKYGSKDFMAPGRSVACAKHFLADGGTDQGRDQGDARISEDELIRIHNAGYPPAIDAGVLTVMASFSSWQGIKHHGHKQLLTDVLKGQMGFNGFIVGDWNAHDQVPGCTKFNCPTSLIAGLDMYMAADSWKQLYENTLAQVKDGTIPMARLDDAVRRILRVKVLAGLFEKPAPKDRPGLPGLETLGSPEHRAVGREAVRKSLVLLKNDKGTLPLSPKARVLVAGDGADNIGKQSGGWTISWQGTGNRNDEFPGATSILGGIRDAVADAGGSVEFDVAGQYKTKPDVAIVVFGEEPYAEFQGDVETLEYQPDQKQDLALLKKLKDQGIPVVAVFLSGRPMWVNPELNASDAFVAAWLPGTEGGGVADVLFTDKAGKVQHDFAGKLSYSWPRTAAQTTVNRGDADYNPLFAYGYGLTYKDKSKVGTLPEESGVPAEARQNAGIYFRAGALRLPGRFL

The data set in a line: High throughput cellobiose assay: fold improvement in cellobiase activity of CelA variants over a control enzyme (Tables 2A-2D, 3, 5, 6, 7). Type of data set: biochemical. Conditions: 3.3 g/l cellobiose, 55° C. and pH 6.0.
With B1, the “Fold improvement over Control Variant No. 5 from Table 2A” value is reported as “+++ (+++ = 6 to 13 fold improvement over control Variant No. 2)”.

For the molecule B2, the “Fold improvement over Control Variant No. 5 from Table 2A” value is given as “+++ (+++ = 6 to 13 fold improvement over control Variant No. 2)”.

Take B3: the “Fold improvement over Control Variant No. 5 from Table 2A” value is “++ (++ = 1.1 to 6 fold improvement over control Variant No. 2)”.

With B4, the “Fold improvement over Control Variant No. 5 from Table 2A” value is given as “+++ (+++ = 6 to 13 fold improvement over control Variant No. 2)”.

Consider B5, for which the “Fold improvement over Control Variant No. 5 from Table 2A” value is on record as “+++ (+++ = 6 to 13 fold improvement over control Variant No. 2)”.

On to B6, for which the “Fold improvement over Control Variant No. 5 from Table 2A” value was “+++ (+++ = 6 to 13 fold improvement over control Variant No. 2)”.

Turning to B7, the “Fold improvement over Control Variant No. 5 from Table 2A” value is listed as “+++ (+++ = 6 to 13 fold improvement over control Variant No. 2)”.

Regarding B8, the “Fold improvement over Control Variant No. 5 from Table 2A” value is given as “+++ (+++ = 6 to 13 fold improvement over control Variant No. 2)”.
